Sequences and labels used below:
T1: Boi1 SH3 (BOI1_YEAST), P38041
T1 chain: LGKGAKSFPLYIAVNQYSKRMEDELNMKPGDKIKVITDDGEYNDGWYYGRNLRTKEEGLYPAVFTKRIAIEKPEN

T2: Boi2 SH3 (BOI2_YEAST), P39969
T2 chain: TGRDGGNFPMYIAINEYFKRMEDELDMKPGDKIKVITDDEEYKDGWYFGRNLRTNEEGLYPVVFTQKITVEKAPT

T3: Rvs167 SH3 (RV167_YEAST), P39743
T3 chain: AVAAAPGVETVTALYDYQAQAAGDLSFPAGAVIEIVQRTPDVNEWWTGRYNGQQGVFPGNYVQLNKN

T4: Yfr024 SH3 (LSB3_YEAST), P43603
T4 chain: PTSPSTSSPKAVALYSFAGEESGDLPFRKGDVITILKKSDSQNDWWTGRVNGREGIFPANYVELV

T5: Yhr016c SH3 (YSC84_YEAST), P32793
T5 chain: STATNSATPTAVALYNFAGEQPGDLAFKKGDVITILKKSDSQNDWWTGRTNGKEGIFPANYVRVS

For the first experiment, the target named is T1, Boi1 SH3 (BOI1_YEAST), P38041. Description: SPOT array.
SSQPRPPPRPQQNP [YGR268C 71-84] had a normalised SPOT signal, Boehringer light units (BLU); mean over the file's lines of this peptide of 69.2.
Same read-out and setting: then SQSPKRPKKYPKKA [YNL080C 295-308], with 47; and SSRPTSPVRKARST [YER173W 28-41], with 368.
SSPPPLPTRRDHIK [YPR171W 184-197] displayed a normalised SPOT signal, Boehringer light units (BLU); mean over the file's lines of this peptide of 56800.
In turn, SRKPPIPAKQHVKK [YIL156W 547-560] returned a normalised SPOT signal, Boehringer light units (BLU); mean over the file's lines of this peptide of 51.7.
As to SSMPNSPKKPVDSL [YDL117W 117-130], the normalised SPOT signal, Boehringer light units (BLU); mean over the file's lines of this peptide stood at 78.9.
The same measure, in the same setting: to SSSPFIPKKRKPRS [YLR430W 2218-2231] belongs 76.5; to SSFPTIPLRASSGA [YER006W 232-245], 468; to SSRPMPPIRGPKRR [YLR147C 88-101], 1100.
With SSIPPNPGKTAKPI [YBR198C 108-121], the normalised SPOT signal, Boehringer light units (BLU); mean over the file's lines of this peptide was 71.5.
On the same count and under the same terms, to SRPPRPPPKPLHLR [YIL095W 747-760] belongs 100.
Regarding SSNPDDPIRVTTPM [YOL004W 293-306], the normalised SPOT signal, Boehringer light units (BLU); mean over the file's lines of this peptide is 25.6.
Same read-out and setting: then SSLPSPPAKKSATS [YOL006C 72-85], with 66.2; and SQQPTAPMKKTLLK [YMR198W 453-466], with 343; and SSLPLGPIKERSKQ [YMR012W 146-159], with 120.

A further experiment has as its target T2, Boi2 SH3 (BOI2_YEAST), P39969. Description: SPOT array.
The molecule SSQPRPPPRPQQNP [YGR268C 71-84] yielded a normalised SPOT signal, Boehringer light units (BLU); mean over the file's lines of this peptide of 5.7.
Same read-out and setting: then SQSPKRPKKYPKKA [YNL080C 295-308], with 36.6; and SSRPTSPVRKARST [YER173W 28-41], with 73.1; and SSPPPLPTRRDHIK [YPR171W 184-197], with 361.
The molecule SRKPPIPAKQHVKK [YIL156W 547-560] showed a normalised SPOT signal, Boehringer light units (BLU); mean over the file's lines of this peptide of -0.
Still for that read-out and setting: then SSMPNSPKKPVDSL [YDL117W 117-130], with 90.7.
Still for that read-out and setting: to SSSPFIPKKRKPRS [YLR430W 2218-2231] belongs 92; to SSFPTIPLRASSGA [YER006W 232-245], 9.1.
With SSRPMPPIRGPKRR [YLR147C 88-101], the normalised SPOT signal, Boehringer light units (BLU); mean over the file's lines of this peptide was determined as 376.
Still for that read-out and setting: then SSIPPNPGKTAKPI [YBR198C 108-121], with 42.9.
Same read-out and setting: then SRPPRPPPKPLHLR [YIL095W 747-760], with 216.
The same measure, in the same setting: then SSNPDDPIRVTTPM [YOL004W 293-306], with 75.1; and SSLPSPPAKKSATS [YOL006C 72-85], with 16.7; and SQQPTAPMKKTLLK [YMR198W 453-466], with 2.3.
Take SSLPLGPIKERSKQ [YMR012W 146-159]: the normalised SPOT signal, Boehringer light units (BLU); mean over the file's lines of this peptide was found to be 19.3.

The target in another experiment is T3, Rvs167 SH3 (RV167_YEAST), P39743. Put plainly: SPOT array.
In the case of SSQPRPPPRPQQNP [YGR268C 71-84], the normalised SPOT signal, Boehringer light units (BLU); mean over the file's lines of this peptide stood at 956.
On the same count and under the same terms, to SQSPKRPKKYPKKA [YNL080C 295-308] belongs 57.3; to SSRPTSPVRKARST [YER173W 28-41], 98.3.
On the same count and under the same terms, to SSPPPLPTRRDHIK [YPR171W 184-197] belongs 33600.
Same read-out and setting: then SRKPPIPAKQHVKK [YIL156W 547-560], with 14.9; and SSMPNSPKKPVDSL [YDL117W 117-130], with 335.
As for SSSPFIPKKRKPRS [YLR430W 2218-2231], the normalised SPOT signal, Boehringer light units (BLU); mean over the file's lines of this peptide worked out at 42.9.
As to SSFPTIPLRASSGA [YER006W 232-245], the normalised SPOT signal, Boehringer light units (BLU); mean over the file's lines of this peptide was 786.
SSRPMPPIRGPKRR [YLR147C 88-101] yielded a normalised SPOT signal, Boehringer light units (BLU); mean over the file's lines of this peptide of 771.
Still for that read-out and setting: to SSIPPNPGKTAKPI [YBR198C 108-121] belongs 56.1.
The same measure, in the same setting: then SRPPRPPPKPLHLR [YIL095W 747-760], with 565; and SSNPDDPIRVTTPM [YOL004W 293-306], with 20.9; and SSLPSPPAKKSATS [YOL006C 72-85], with 40.7.
Same read-out and setting: to SQQPTAPMKKTLLK [YMR198W 453-466] belongs 53.5; to SSLPLGPIKERSKQ [YMR012W 146-159], 15.4.

The next experiment concerns the target T4, Yfr024 SH3 (LSB3_YEAST), P43603. Put plainly: SPOT array.
The molecule SSQPRPPPRPQQNP [YGR268C 71-84] showed a normalised SPOT signal, Boehringer light units (BLU); mean over the file's lines of this peptide of 8620.
Still for that read-out and setting: then SQSPKRPKKYPKKA [YNL080C 295-308], with 624; and SSRPTSPVRKARST [YER173W 28-41], with 1780.
The same measure, in the same setting: to SSPPPLPTRRDHIK [YPR171W 184-197] belongs 35200; to SRKPPIPAKQHVKK [YIL156W 547-560], 4850.
On the same count and under the same terms, to SSMPNSPKKPVDSL [YDL117W 117-130] belongs 902; to SSSPFIPKKRKPRS [YLR430W 2218-2231], 1970; to SSFPTIPLRASSGA [YER006W 232-245], 3160.
SSRPMPPIRGPKRR [YLR147C 88-101] yielded a normalised SPOT signal, Boehringer light units (BLU); mean over the file's lines of this peptide of 11600.
Same read-out and setting: then SSIPPNPGKTAKPI [YBR198C 108-121], with 135; and SRPPRPPPKPLHLR [YIL095W 747-760], with 25900; and SSNPDDPIRVTTPM [YOL004W 293-306], with 85.
Still for that read-out and setting: to SSLPSPPAKKSATS [YOL006C 72-85] belongs 300.
Still for that read-out and setting: then SQQPTAPMKKTLLK [YMR198W 453-466], with 58.5.
SSLPLGPIKERSKQ [YMR012W 146-159]: the normalised SPOT signal, Boehringer light units (BLU); mean over the file's lines of this peptide stood at 78.

In another experiment the target is T5, Yhr016c SH3 (YSC84_YEAST), P32793. Put plainly: SPOT array.
Take SSQPRPPPRPQQNP [YGR268C 71-84]: the normalised SPOT signal, Boehringer light units (BLU); mean over the file's lines of this peptide came out at 2040.
Same read-out and setting: then SQSPKRPKKYPKKA [YNL080C 295-308], with 214.
The same measure, in the same setting: to SSRPTSPVRKARST [YER173W 28-41] belongs 317; to SSPPPLPTRRDHIK [YPR171W 184-197], 117000; to SRKPPIPAKQHVKK [YIL156W 547-560], 35.2.
The same measure, in the same setting: then SSMPNSPKKPVDSL [YDL117W 117-130], with 108; and SSSPFIPKKRKPRS [YLR430W 2218-2231], with 258; and SSFPTIPLRASSGA [YER006W 232-245], with 777.
The molecule SSRPMPPIRGPKRR [YLR147C 88-101] had a normalised SPOT signal, Boehringer light units (BLU); mean over the file's lines of this peptide of 1900.
Same read-out and setting: to SSIPPNPGKTAKPI [YBR198C 108-121] belongs 429; to SRPPRPPPKPLHLR [YIL095W 747-760], 1020.
On the same count and under the same terms, to SSNPDDPIRVTTPM [YOL004W 293-306] belongs 282; to SSLPSPPAKKSATS [YOL006C 72-85], 61.3.
The same measure, in the same setting: to SQQPTAPMKKTLLK [YMR198W 453-466] belongs 0.
On to SSLPLGPIKERSKQ [YMR012W 146-159], for which the normalised SPOT signal, Boehringer light units (BLU); mean over the file's lines of this peptide was -0.

The values above are taken from article PMC314469, “Protein Interaction Networks by Proteome Peptide Scanning” (PLoS Biology, 2004).
